Source: patent US7001882B1, “Muteins of bilin-binding protein” (Pieris Proteolab AG, priority 1999, dated 2006)

Legend:
Type in all cases: binding
[1] = Fluorescence titration of Bbp muteins with digoxigenin
Description: (§1) The ligand binding properties of muteins DigA, DigA16 and also of the recombinant bilin-binding protein (encoded by SEQ ID NO:16) were determined by means of the method of fluorescence titration. In this case, the decrease in intrinsic tyrosine and/or tryptophan fluorescence of the protein forming a complex with the ligand was measured. The measurements were carried out in a fluorimeter, type LS 50 B (Perkin Elmer) at an excitation wavelength of 295 nm (slit width 4 nm) and an emission wavelength of 345 nm (slit width 6 nm). The ligands used were digoxigenin (Fluka), digoxin (Fluka), digitoxigenin (Fluka), digitoxin (Fluka), testosterone (Sigma), ouabain (Fluka), and 4-aminofluorescein (Fluka).
(§2) The buffer system used was PBS with the addition of 1 mM EDTA. […] The concentration was determined by means of absorption at 280 nm using calculated extinction coefficients of 53580 M^−1 cm^−1 for DigA and DigA16 (Wisconsin Software Package, Genetics Computer Group). For Bbp, the calculated extinction coefficient of 54150 M^−1 cm^−1, corrected in the presence of guanidinium chloride according to Gill and von Hippel (Anal. Biochem. 182 (1989), 319–326) was used. […]
(§3) Here, F means the normalized fluorescence intensity and [L]t the total ligand concentration in the particular titration step. […]

[2] = Fluorescence titration of Bbp muteins with testosterone; conditions: 1 μM mutein, PBS with 1 mM EDTA, 25° C., read-out: Kd, ligand testosterone
Description: as §1, §2, §3

[3] = Fluorescence titration of Bbp muteins with digitoxigenin
Description: as §1, §2, §3

[4] = Sandwich ELISA detecting digoxigenin groups with DigA16-alkaline phosphatase fusion proteins; conditions: p-nitrophenyl phosphate hydrolysis, 405 nm, FIG. 3
Description: Here, the digoxigenin groups were coupled on the one hand to bovine serum albumin (BSA, squares) or, on the other hand, to chicken egg albumin (ovalbumin, triangles) The control data shown are those obtained when using underivatized bovine serum albumin and the fusion protein encoded by pBBP27 (open circles). The enzymatic activity corresponding to the particular bound fusion protein was monitored spectrophotometrically at 405 nm on the basis of p-nitrophenyl phosphate hydrolysis. Curve fitting was carried out by non-linear regression with the aid of the Kaleidagraph computer program (Abelbeck Software) by means of the equation [P·L]=[L]t[P]t/(Kd+[P]t)
Here, [P]t corresponds to the total fusion protein concentration used in the particular microtiter plate well. [P·L] is determined on the basis of the enzymatic activity of alkaline phosphatase. […]
For detecting digoxigenin groups in a sandwich ELISA, the wells in in each case two rows of a microtiter plate (ELISA strips, 2×8 well with high binding capacity, F-type, Greiner) were filled in each case with 100 μl of a 100 μg/ml solution of the BSA-digoxigenin conjugate or the ovalbumin-digoxigenin conjugate in PBS and incubated at RT overnight. […] The fusion proteins bound to the digoxigenin groups were finally detected by means of alkaline phosphatase-catalyzed hydrolysis of p-nitrophenyl phosphate. […]

[5] = Fluorescence titration of Bbp muteins with digoxin; conditions: 1 μM mutein, PBS with 1 mM EDTA, 25° C., read-out: Kd, ligand digoxin
Description: as §1, §2, §3

[6] = Fluorescence titration of Bbp muteins with 4-aminofluorescein; conditions: 1 μM mutein, PBS with 1 mM EDTA, 25° C., read-out: Kd, ligand 4-aminofluroescein
Description: as §1, §2, §3

[7] = Fluorescence titration of Bbp muteins with ouabain
Description: as §1, §2, §3

[8] = Fluorescence titration of Bbp muteins with digitoxin; conditions: 1 μM mutein, PBS with 1 mM EDTA, 25° C., read-out: Kd, ligand digitoxin
Description: as §1, §2, §3

Molecule | Kd ([1]; fluorescence titration, 1 μM mutein, PBS with 1 mM EDTA, 25° C., read-out: Kd, ligand digoxigenin) | Kd [2] | Kd ([3]; 1 μM mutein, PBS with 1 mM EDTA, 25° C., read-out: Kd, ligand digitoxigenin) | binding of digitoxigenin compared with digoxigenin (FIG. 1, in words) ([3]; FIG. 1) | binding of the digoxigenin group as conjugate with BSA and with ovalbumin in ELISA (in words) [4] | Kd [5] | Kd [6] | Kd ([7]; 1 μM mutein, PBS with 1 mM EDTA, 25° C., read-out: Kd, ligand ouabain) | binding of ouabain (FIG. 1, in words) ([7]; FIG. 1) | Kd [8] | Kd ([1]; determined according to Example 3, read-out: affinity between the mutein and digoxigenin)
DigA16: affinity-improved mutein of the bilin-binding protein derived from DigA, encoded by SEQ ID NO:15 (polypeptide SEQ ID NO: 23) (protein) DVYHDGACPEVKPVDNFDWSQYHGKWWQVAAYPDHITKYGKCGWAEYTPEGKSVKVSRYSVIHGKEYFSEGTAYPVGDSKIGKIYHSYTIGGVTQEGVFNVLSTDNKNYIIGYFCSYDEDKKGHMDLVWVLSRSMVLTGEAKTAVENYLIGSPVVDSQKLVYSDFSEAACKVNN | 30.2 ± 3.6 nM | > 10000 nM | 2.8 ± 2.7 nM | bound even tighter than digoxigenin | context-independent | 31.1 ± 3.2 nM | > 10000 nM | > 10000 nM | no binding is observed | 2.7 ± 2 nM | –
DigA: mutein of the bilin-binding protein selected for digoxigenin binding, SEQ ID NO:12 (amino acid sequence SEQ ID NO: 21) (protein) DVYHDGACPEVKPVDNFDWSQYHGKWWEVAKYPHHERKYGKCGWAEYTPEGKSVKVSRYSVIHGKEYFSEGTAYPVGDSKIGKIYHSYTIGGVTQEGVFNVLSTDNKNYIIGYFCSYDEDKKGHMDLVWVLSRSMVLTGEAKTAVENYLIGSPVVDSQKLVYSDFSEAACKVNN | – | – | – | – | – | 200 ± 34 nM | – | – | – | – | 295 ± 36 nM
